This is an account of results in patent CN105524166A (ATTOBIO (SUZHOU) CO LTD, dated 2016).

One experiment deals with T1, His-HPV16E7融合蛋白 (human papillomavirus type 16 (HPV16), UniProt P03129 2-98).
T1 construct: Recombinant His fusion protein coated on ELISA plates; also called HPV16E7重组蛋白; His-HPV16E7重组蛋白; not shown: His tag
T1 sequence: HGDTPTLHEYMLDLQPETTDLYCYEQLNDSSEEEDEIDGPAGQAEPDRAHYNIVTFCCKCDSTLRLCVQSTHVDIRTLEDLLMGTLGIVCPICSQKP
The experiment in a line: indirect ELISA, coated His-HPV16E7. On the technique in general: An ELISA detects its analyte on a solid surface through an enzyme-linked reagent.

For a further experiment, the target named is T2, CaSki细胞表达的HPV16E7蛋白 (human papillomavirus type 16 (HPV16), UniProt P03129 2-98).
T2 construct: Endogenous, intracellular E7 of CaSki cells, tested in fixed, permeabilised cells (ICC); also called 表达HPV16E7的CaSki细胞; HPV16E7阳性细胞CaSki
T2 sequence: T1 sequence
The experiment in a line: immunocytochemistry on fixed, permeabilised CaSki cells.

The next experiment concerns the target T3, His-HPV18E7融合蛋白 (human papillomavirus type 18 (HPV18), UniProt P06788 1-105).
T3 construct: Recombinant His fusion protein coated on ELISA plates; also called HPV18E7重组蛋白; His-HPV18E7重组蛋白; not shown: His tag
T3 chain: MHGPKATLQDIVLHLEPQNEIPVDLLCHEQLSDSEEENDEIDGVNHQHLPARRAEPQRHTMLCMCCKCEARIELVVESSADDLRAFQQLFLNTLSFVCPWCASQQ
As to the kind of experiment: ELISA by the method of Beatty et al.: His-HPV18E7 coated at 8, 2, 0.5 and 0.125 μg/ml, MAB-F2 in two-fold dilutions from 8 μg/ml, mean of six K values.

B1: HPV18E7单克隆抗体MAB-F2 (antibody, V domains shown)
VH: LVQSGGGSVKPGGSLKLSCAASGFTFNRYDMSWFRQSPEKRLEWVAEIRNDGSKTHYSDTVTGRFTISRDNAKNTLYLEMSSLRSEDTAMYYCTRDSYGTVFAYWGQGTLVTVSA
VL: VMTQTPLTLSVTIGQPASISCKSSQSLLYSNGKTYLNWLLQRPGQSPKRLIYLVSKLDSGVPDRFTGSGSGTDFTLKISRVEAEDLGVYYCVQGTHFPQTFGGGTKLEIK
notes: also called mAb MAB-F2; anti-HPV18E7单抗MAB-F2
In the case of B1, the binding result is recorded as “no binding (tested: MAB-F2 1μg/ml; antigen coated at 2μg/ml)” in the experiment with His-HPV16E7融合蛋白 and “no binding (tested: MAB-F2 5μg/ml)” in the experiment with CaSki细胞表达的HPV16E7蛋白. Also, the affinity with His-HPV18E7融合蛋白, expressed as Kd, was 2.67 nM.
